Data published in the supplement of paper PMC7125110.
± gives the standard error. For part of these data: Fewer inactive variants are shown than the library holds.

B1: glmS ribozyme (parent)
chain: AUAAAAGCGCCAGAACUACAGAAAUGUAGUUGACGAGGAGGAGGUUUAUCGAAUUUUCGGCGGAUGCCUCCAAA

What was measured:
Settings in all cases: with glucosamine-6-phosphate
glucosamine-6-phosphate [1] = variants of: B1; assay: kcat; higher = faster cleavage; RNA array
Method in brief: (§1)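 kobs was derived by fitting per-tile medians to one- or two-exponential decays after normalising signals to baseline and to non-cleaving reference variants. Those signals came from barcoded ribozyme variants transcribed in situ by E. coli RNA polymerase on sequenced MiSeq chips, followed through a hybridised Cy3 probe at 37 °C and imaged over ~14 h. Glucosamine-6-phosphate (40 μM to 10 mM) in HEPES/KCl/Mg(OAc)2 buffer was flowed in. Weighted Michaelis–Menten fits across concentrations then gave kcat and KM.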

glucosamine-6-phosphate [2] = variants of: B1; assay: self-cleavage kobs at 10000 uM GlcN6P; higher = faster cleavage; RNA array
Method in brief: as §1

glucosamine-6-phosphate [3] = variants of: B1; assay: self-cleavage kobs at 40 uM GlcN6P; higher = faster cleavage; RNA array
Method in brief: as §1

glucosamine-6-phosphate [4] = variants of: B1; assay: self-cleavage kobs at 160 uM GlcN6P; higher = faster cleavage; RNA array
Method in brief: as §1

glucosamine-6-phosphate [5] = variants of: B1; assay: self-cleavage kobs at 640 uM GlcN6P; higher = faster cleavage; RNA array
Method in brief: as §1

glucosamine-6-phosphate [6] = variants of: B1; assay: self-cleavage kobs at 2500 uM GlcN6P; higher = faster cleavage; RNA array
Method in brief: as §1

glucosamine-6-phosphate [7] = variants of: B1; assay: KM; higher = weaker cofactor use; RNA array
Method in brief: as §1

| Variant | kcat (glucosamine-6-phosphate [1]) | self-cleavage kobs at 10000 uM GlcN6P (glucosamine-6-phosphate [2]) | self-cleavage kobs at 40 uM GlcN6P (glucosamine-6-phosphate [3]) | self-cleavage kobs at 160 uM GlcN6P (glucosamine-6-phosphate [4]) | self-cleavage kobs at 640 uM GlcN6P (glucosamine-6-phosphate [5]) | self-cleavage kobs at 2500 uM GlcN6P (glucosamine-6-phosphate [6]) | KM (glucosamine-6-phosphate [7]) |
| --- | --- | --- | --- | --- | --- | --- | --- |
| A12G U49G | 0.00103 ± 0.00035 s⁻¹ | 6.93e-05 ± 1.7e-05 s⁻¹ |  |  |  |  |  |
| A39G C70G | 0.000172 ± 3.8e-05 s⁻¹ | 0.000132 ± 1.8e-05 s⁻¹ | 0.000112 ± 1.6e-05 s⁻¹ | 0.000143 ± 2.3e-05 s⁻¹ | 0.000314 ± 4.7e-05 s⁻¹ | 0.000245 ± 3.2e-05 s⁻¹ |  |
| C11U A12U U56C | 0.00124 ± 0.00036 s⁻¹ | 0.00106 ± 0.00015 s⁻¹ | 5.74e-05 ± 1.7e-05 s⁻¹ |  | 0.000258 ± 5e-05 s⁻¹ | 0.000639 ± 0.00015 s⁻¹ |  |
| G29U | 0.00859 ± 0.00066 s⁻¹ | 0.00757 ± 0.00024 s⁻¹ | 0.000218 ± 3.7e-06 s⁻¹ | 0.000677 ± 5.2e-05 s⁻¹ | 0.00232 ± 8.4e-05 s⁻¹ | 0.01 ± 0.0028 s⁻¹ | 1570 ± 140 µM |
| A52U U55A | 0.000247 ± 3.7e-05 s⁻¹ | 0.000191 ± 1.8e-05 s⁻¹ |  |  | 3.67e-05 ± 1.3e-05 s⁻¹ | 0.000147 ± 1.8e-05 s⁻¹ | 2490 ± 990 µM |
| C10U A12U | 0.000153 ± 2.3e-05 s⁻¹ | 0.000113 ± 9e-06 s⁻¹ |  |  | 1.92e-05 ± 6e-06 s⁻¹ | 8.4e-05 ± 1.2e-05 s⁻¹ | 3200 ± 1200 µM |
| A48G | 0.000117 ± 1.3e-05 s⁻¹ | 0.000103 ± 1.5e-06 s⁻¹ |  | 1.61e-05 ± 3.1e-06 s⁻¹ | 4.49e-05 ± 1.5e-06 s⁻¹ | 0.00011 ± 2.2e-06 s⁻¹ | 845 ± 350 µM |
| G13A U69C | 0.000255 ± 8.6e-05 s⁻¹ | 0.000179 ± 4.5e-05 s⁻¹ |  |  |  | 0.000132 ± 2.8e-05 s⁻¹ |  |
| A48U C58G | 1.01e-05 ± 4e-06 s⁻¹ |  |  |  |  |  |  |
| U54C U69G | 6.89e-05 ± 7.2e-06 s⁻¹ | 5.47e-05 ± 1.8e-05 s⁻¹ |  | 3.54e-05 ± 1.6e-05 s⁻¹ | 5.03e-05 ± 1.1e-05 s⁻¹ | 7.28e-05 ± 1.1e-05 s⁻¹ |  |
| A15C U45G | 0.000779 ± 0.00013 s⁻¹ | 0.000562 ± 0.00014 s⁻¹ |  | 7.06e-05 ± 1.5e-05 s⁻¹ | 0.000218 ± 2.9e-05 s⁻¹ | 0.000568 ± 8.2e-05 s⁻¹ | 1570 ± 400 µM |
| A6G U55A C68G | 2.16e-05 ± 2.8e-06 s⁻¹ |  |  |  |  |  |  |
| A14U U31G | 0.00512 ± 0.0017 s⁻¹ | 0.00424 ± 0.0007 s⁻¹ | 0.000142 ± 2.1e-05 s⁻¹ | 0.000241 ± 5.5e-05 s⁻¹ | 0.00115 ± 0.0003 s⁻¹ | 0.00273 ± 0.0005 s⁻¹ | 2230 ± 1100 µM |
| C34A U45A G51U | 0.000482 ± 0.00015 s⁻¹ | 0.00041 ± 0.00016 s⁻¹ |  |  | 0.000198 ± 5.3e-05 s⁻¹ | 0.000272 ± 0.0001 s⁻¹ |  |
| U65G C67U C68U | 9.98e-05 ± 3.8e-05 s⁻¹ | 6.91e-05 ± 2.9e-05 s⁻¹ |  |  |  | 5.84e-05 ± 1.3e-05 s⁻¹ |  |
| C16G C70A | 3.75e-05 ± 1.5e-05 s⁻¹ | 2.51e-05 ± 1.1e-05 s⁻¹ |  |  |  | 6.29e-05 ± 1.4e-05 s⁻¹ |  |
| U55C C71G | 0.000144 ± 9.8e-06 s⁻¹ | 0.000118 ± 1.9e-05 s⁻¹ |  |  | 3.46e-05 ± 9.7e-06 s⁻¹ | 8.92e-05 ± 1.3e-05 s⁻¹ | 1810 ± 300 µM |
| U55C C71U | 0.00258 ± 5.1e-05 s⁻¹ | 0.00222 ± 0.00029 s⁻¹ | 6.36e-05 ± 1e-05 s⁻¹ | 0.000225 ± 3.7e-05 s⁻¹ | 0.000749 ± 0.00015 s⁻¹ | 0.00157 ± 0.00021 s⁻¹ | 1620 ± 49 µM |
| A33U U56G | 3.36e-05 ± 2.8e-06 s⁻¹ |  |  |  |  |  | 3370 ± 930 µM |

| Variant | kcat (glucosamine-6-phosphate [1]) | self-cleavage kobs at 10000 uM GlcN6P (glucosamine-6-phosphate [2]) | self-cleavage kobs at 40 uM GlcN6P (glucosamine-6-phosphate [3]) | self-cleavage kobs at 160 uM GlcN6P (glucosamine-6-phosphate [4]) | self-cleavage kobs at 640 uM GlcN6P (glucosamine-6-phosphate [5]) | self-cleavage kobs at 2500 uM GlcN6P (glucosamine-6-phosphate [6]) | KM (glucosamine-6-phosphate [7]) |
| --- | --- | --- | --- | --- | --- | --- | --- |
| U65G C70G | 0.000265 ± 5.4e-05 s⁻¹ | 0.000228 ± 2.3e-05 s⁻¹ |  | 4.76e-05 ± 7.4e-06 s⁻¹ | 7.04e-05 ± 6.8e-06 s⁻¹ | 0.000176 ± 1.3e-05 s⁻¹ | 1470 ± 600 µM |
| G40A U57C | 3.56e-05 ± 5.2e-06 s⁻¹ | 3.15e-05 ± 1.2e-05 s⁻¹ |  |  |  | 4.59e-05 ± 2e-05 s⁻¹ |  |
| G13A C58G | 0.000377 ± 8.6e-05 s⁻¹ | 0.000217 ± 3.4e-05 s⁻¹ |  |  | 2.8e-05 ± 7.8e-06 s⁻¹ | 0.000101 ± 1.7e-05 s⁻¹ | 7150 ± 2500 µM |
| A14G A15G C50U C68U | 5.28e-05 ± 7.8e-06 s⁻¹ | 4.76e-05 ± 1.2e-05 s⁻¹ |  |  | 7.36e-05 ± 2e-05 s⁻¹ | 4.92e-05 ± 1.8e-05 s⁻¹ |  |
| C10A G60C | < 1e-05 s⁻¹ |  |  |  | < 1e-05 s⁻¹ |  |  |
| G29A C68G | 3.6e-05 ± 1e-05 s⁻¹ |  |  | 2.59e-05 ± 1.2e-05 s⁻¹ | 4.89e-05 ± 9.9e-06 s⁻¹ | 3.97e-05 ± 1.1e-05 s⁻¹ |  |
| A53G C70A | 0.000194 ± 2e-05 s⁻¹ |  | 7.6e-05 ± 7e-06 s⁻¹ | 0.000132 ± 1.6e-05 s⁻¹ | 0.000188 ± 2.3e-05 s⁻¹ | 0.000183 ± 2.6e-05 s⁻¹ | 63.2 ± 16 µM |
| G41C C70A | 0.000866 ± 0.00015 s⁻¹ | 0.000775 ± 9.6e-05 s⁻¹ | 5.77e-05 ± 8.1e-06 s⁻¹ | 0.000116 ± 2.1e-05 s⁻¹ | 0.000392 ± 6.6e-05 s⁻¹ | 0.00078 ± 0.00012 s⁻¹ | 762 ± 230 µM |
| C16G U47G C50G C68G | 1.23e-05 ± 1.9e-06 s⁻¹ |  |  |  |  |  |  |
| U30C G40U | 4.56e-05 ± 6.3e-06 s⁻¹ | 4.17e-05 ± 6.9e-06 s⁻¹ |  |  |  | 5.33e-05 ± 1.1e-05 s⁻¹ |  |
| U57A U69C | 0.000113 ± 1.4e-05 s⁻¹ | 9.38e-05 ± 1.8e-05 s⁻¹ |  |  |  | 7.81e-05 ± 1.8e-05 s⁻¹ | 1640 ± 640 µM |
| U54G G60C C68G | 3.07e-05 ± 1.4e-05 s⁻¹ |  |  |  |  |  |  |
| C50U C58G | 1.24e-05 ± 3.2e-06 s⁻¹ |  | < 1e-05 s⁻¹ |  |  |  |  |
| G32A G59A | 1.74e-05 ± 3.1e-06 s⁻¹ |  |  | < 1e-05 s⁻¹ |  |  |  |
| A48G A52G | 1.36e-05 ± 9.9e-07 s⁻¹ |  |  |  | < 1e-05 s⁻¹ |  |  |
| U55A C58G | 0.00041 ± 0.00019 s⁻¹ | 0.000153 ± 2.5e-05 s⁻¹ |  |  | 2.55e-05 ± 1.3e-05 s⁻¹ | 4.69e-05 ± 1.5e-05 s⁻¹ |  |
| A15U G66C | 0.000125 ± 1.5e-05 s⁻¹ | 6.96e-05 ± 1.2e-05 s⁻¹ |  |  |  | 3.02e-05 ± 1.1e-05 s⁻¹ | 7900 ± 1900 µM |
| A39U A52U | 0.000201 ± 4.1e-05 s⁻¹ | 0.000141 ± 1.1e-05 s⁻¹ |  |  |  | 9.27e-05 ± 1.2e-05 s⁻¹ | 3930 ± 1900 µM |
